Source: US7001748B2, “Methods of making polyketides using hybrid polyketide synthases” (The Board of Trustees of the Leland Stanford Junior …, priority 1999, dated 2006)
Where “and” joins values, the source holds several entries; their conditions need not be identical. Equal values may be shown once. Read-outs that look alike come from different tables or passages of the source.

What was measured:
[1] = test system: (5)M2+TE, (5)M5+TE, and (5)M6+TE; conditions: Wu et al. 2000; cited from earlier work
[2] = Kinetic constants kcat and KM for converting diketide to triketide (cell-free system); format: biochemical
Method: (§1) A cell-free system, tested for the ability to convert the cysteamine thioester of 2S,3R-2-methyl-3-hydroxypentanoic acid (compound 2 in FIG. 2), consisted of 0.5-10 mM concentration of the thioester, 2.5 mM ^14C-labeled methylmalonyl CoA and 100 pmoles of purified protein prepared in Example 1 in a 100 μl reaction. In some cases, 1 mM of NADPH was added; this was done in assay mixtures containing (M2+TE), (M5+TE) and (M6+TE) proteins. The protein was, in each case, a single module of the DEBS PKS fused to the thioesterase (TE) termination region of module 6.
(§2) The reaction mixtures were quenched and extracted by ethyl acetate and separated by thin-layer chromatography (TLC) to discern the formation of the triketide ketolactone 3 and triketide lactone 4 (both shown in FIG. 2) after 30 minutes.
The various constructs which are successful in converting diketide to triketide were then evaluated for the kinetic constants kcat and KM. […] This is evidently due to the absence of beta-carbonyl modifying enzymes in module 3 as verified by the fact that removal of NADPH, (which is required for the activity of such modules) from the reaction mixture of (N-ERL-M6+TE) also results in a lowering of the kcat.

[3] = Cell-free synthesis of triketides from diketide thioester by single module constructs; format: biochemical; conditions: purified protein, after 30 minutes
Method: as §1, §2

[4] = Kinetic analysis of individual modules with natural diketide (NDK); format: biochemical; conditions: NDK as substrate, 30° C., saturating NADPH and methylmalonyl-CoA
Method: In Vitro Polyketide Production. Assays of individual modules contained 1.0 μM protein, 1-10 mM N-acetylcysteamine thioester of the “natural” (2S,3R)-2-methyl-3-hydroxypentanoic acid diketide (NDK) (1), 4 mM NADPH, 440 mM sodium phosphate, 1 mM EDTA, 2.5 mM dithiothreitol (DTT), and 20% w/v glycerol, pH 7.2, in 80 μL. Reactions with M2 or M2(4) included 0.3 mM ^14C-methylmalonyl-CoA (specific activity adjusted to 10.4 mCi/mmol), and those with M3+TE or (5)M3+TE included 0.5 mM ^14C-methylmalonyl-CoA (specific activity reduced to 1.1 mCi/mmol). [M2(4) refers to a derivative of M2 in which the C-terminal linker has been replaced with its counterpart from module 4, whereas (5)M3 refers to a derivative of M3 in which the N-terminal linker has been replaced with its counterpart from module 5 (see FIG. 4).] […] Product formation was quantified by comparison with standards of the labeled methylmalonyl-CoA. […]
Kinetic Analysis. For individual modules, the steady-state turnover number was determined from the time course of triketide formation, normalized to the concentration of protein. The dependence of the rate on substrate concentration was measured by varying the concentration of NDK while maintaining saturating levels of NADPH and methylmalonyl-CoA.

[5] = target: T1, M3+TE (Saccharopolyspora erythraea, UniProt Q03132+Q03133); assay: Tetraketide lactone 2 formation, coincubation of donor module with M3+TE; format: biochemical
T1 construct: encodes module 3 of DEBS (M3) with its own N-terminal linker and with the thioesterase fused to the C-terminus; natural N-terminal interpolypeptide linker of module 3 (start of DEBS2, ahead of the Module 3 feature); His6 (C); made in house; host or cells: E. coli BL21(DE3) co-expressing B. subtilis sfp
Method: (§3) Assays of M2 and M3+TE contained 1.0 μM M2 and 0.4-4 μM M3+TE, 7 mM NDK, 0.5 mM ^14C-methylmalonyl-CoA (specific activity reduced to 3.4 mCi/mmol), 4 mM NADPH, 440 mM sodium phosphate, 1 mM EDTA, 2.5 mM DTT, and 20% w/v glycerol, pH 7.2, in 70 μL. Assays of M2(4) and (5)M3+TE were identical, except they contained 0.5 μM M2(4), 0.5-5 μM (5)M3+TE, and 0.4 mM ^14C-methylmalonyl-CoA (specific activity reduced to 6.2 mCi/mmol). The concentration of M2(4) was limiting in order to facilitate its saturation with (5)M3+TE. The reactions were prewarmed at 30° C. and initiated by the addition of the methylmalonyl-CoA. As described above, 20 μL aliquots were removed at various time points and processed. Extracts loaded onto TLC plates were separated using either 80% ethyl acetate in hexanes or 5% methanol in dichloromethane, both of which allowed identification of the tetraketide lactone 2 and the triketide lactones 3 and 4.
(§4) For tetraketide formation, the rate of production of tetraketide was recorded for varying concentrations of M3+TE [or (5)M3+TE] at a fixed concentration of M2 [or M2(4)] and saturating concentrations of substrates. By fitting the rate dependence of tetraketide to a saturation curve, the maximal velocity (νmax) of tetraketide production was determined, and was assumed to represent the case where every M2 homodimer was productively associated with an M3+TE homodimer. Thus, the affinity of this protein-protein interaction could be calculated from the rate of tetraketide formation, as represented in Equation 1 ν=kcat[M2-M3] (1) ([M2], [M3], and [M2-M3] refer to the concentrations of M2, unbound M3+TE, and the M2/M3+TE complex, respectively). Since [M2-M3] is related to the KD of M2 and M3+TE as shown in Equation 2, [formula] which can be rearranged to yield Equation 3, [formula] where [M2]0=total concentration of M2, the velocity of tetraketide production can be defined relative to the KD: [formula] where ν=kcat[M2-M3] and νmax=kcat[M2]0. […]

[6] = target: T2, (5)M3+TE (Saccharopolyspora erythraea, UniProt Q03132+Q03133); assay: Tetraketide lactone 2 formation, coincubation of donor module with (5)M3+TE; format: biochemical
T2 construct: (5)M3+TE: module 3 with N-terminal linker from module 5; N-terminal interpolypeptide linker of DEBS module 5 (start of DEBS3, Q03133); His6 (C); made in house; host or cells: E. coli BL21(DE3) co-expressing B. subtilis sfp
Method: as §3, §4

[7] = target: T1, M3+TE; conditions: cited from earlier work
[8] = target: T3, module 5+TE (Saccharopolyspora erythraea, UniProt Q03133); conditions: diffusive loading, shown earlier; cited from earlier work
T3 construct: a single module of the DEBS PKS fused to the thioesterase (TE) termination region of module 6; thioesterase (TE) domain of DEBS (end of the same DEBS3 polypeptide); made in house; host or cells: E. coli BL21(DE3) co-expressing B. subtilis sfp

[9] = target: T2, (5)M3+TE; conditions: previously shown; cited from earlier work
[10] = target: T4, (3)M3+TE (Saccharopolyspora erythraea, UniProt Q03132+Q03133); conditions: previously shown; cited from earlier work
T4 construct: encodes module 3 of DEBS (M3) with its own N-terminal linker and with the thioesterase fused to the C-terminus; natural N-terminal interpolypeptide linker of module 3 (start of DEBS2, ahead of the Module 3 feature); His6 (C); made in house; host or cells: E. coli BL21(DE3) co-expressing B. subtilis sfp

## CCC(O)C(C)C(=O)SCCNC(C)=O (stereo not drawn) [2d]
[1]
  incorporation of NAC thioester (qualitative): no turnover

## ERL − M2 + TE: module 2+TE carrying the upstream 39 amino acids (N-ERL) from module 5
[2]; diketide to triketide
  Km: 4.6 ± 0.4 mM
  kcat × 100: 8 ± 0.6 min^−1
[3]
  Triketide Formed: Yes
[3]; listed as (N-ERL-M2+TE)
  Triketide Formed: able to produce the triketide product

## M2(4): derivative of M2 containing the C-terminal linker of DEBS module 4
[4]
  kcat: ~0.0005 s⁻¹
[5]; mismatched linker pair
  highest rate constants that could be measured, tetraketide lactone 2: 0.02 to 0.03 min⁻¹
[6]; fixed donor, variable (5)M3+TE
  kcat (saturating rate) of tetraketide lactone 2 formation: 0.0123 ± 0.001 s⁻¹ and 0.0123 s⁻¹
[6]; from saturation curve
  Kd: 2100 ± 400 nM

## ERL − M6 + TE: module 6+TE carrying the upstream 39 amino acids (N-ERL) from module 5
[2]; (− NADPH)
  Km: 4.1 ± 0.4 mM
  kcat × 100: 4.5 ± 0.7 min^−1
[2]; diketide to triketide
  Km: 4.3 ± 0.4 mM
  kcat × 100: 9.5 ± 0.6 min^−1
[3]
  Triketide Formed: Yes
[3]; listed as (N-ERL-M6+TE)
  Triketide Formed: able to produce the triketide product

## DEBS1: first protein of 6-deoxyerythronolide B synthase, loading module and extender modules 1 and 2
[7]; Gokhale et al. 1999, read-out: KD, previously reported value
  Kd: 2600 nM
[7]; Pieper et al. 1997
  rate of formation of the same tetraketide, earlier measurement: 0.23 min^−

## M2: module 2 of DEBS, thioesterase replaced with the natural C-terminal linker for module 2
[4]
  kcat: ~0.00033 s⁻¹
[5]; estimated from saturation curve
  Kd: 1100 ± 100 nM
[5]; fixed donor, variable M3+TE, 7 mM NDK
  kcat (maximum / saturating rate constant) of tetraketide lactone 2 formation: 0.0045 ± 0.00017 s⁻¹ and 0.0045 s⁻¹
[6]; mismatched linker pair
  highest rate constants that could be measured, tetraketide lactone 2: 0.02 to 0.03 min⁻¹

## CCC(O)C(C)C(=O)SCCNC(C)=O (stereo not drawn) [2c]
[1]
  incorporation of NAC thioester (qualitative): no turnover

## M5 + TE: single module 5 of DEBS fused to the thioesterase (TE) domain
[2]; diketide to triketide
  Km: 4.7 ± 0.4 mM
  kcat × 100: 7.5 ± 0.7 min^−1
[3]
  Triketide Formed: Yes
[3]; listed as (M5+TE)
  Triketide Formed: expected triketides were formed

## CCC(O)C(C)C(=O)SCCNC(C)=O (stereo not drawn) [2b]
[8]
  kcat (elongation rate constant), NAC thioester substrate: 0.00033 s⁻¹
[9]
  incorporation of NAC thioester (qualitative): readily incorporated and elongated
[1]
  incorporation of NAC thioester (qualitative): substrates for the three modules
[10]
  incorporation of NAC thioester (qualitative): readily incorporated and elongated
